Bounds are passed on as bounds.

One test deals with T1, HLA-A*02 (human).
T1 construct: MHC monomer made peptide-receptive by UV cleavage of a UV-sensitive ligand; also called peptide-receptive MHC class I monomer
The test is described as follows: UV peptide-exchange ELISA; ++++ = yield >75%. In general terms: ELISA stands for enzyme-linked immunosorbent assay.

In the next test the target is T2, HLA-A*01 (human).
T2 construct: MHC monomer made peptide-receptive by UV cleavage of a UV-sensitive ligand; also called peptide-receptive MHC class I monomer
The test is described as follows: UV peptide-exchange ELISA; +++ = yield >50%. An excerpt:
Candidate peptides for T cell based therapies according to the present invention were further tested for their MHC binding capacity (affinity). The individual peptide-MHC complexes were produced by UV-ligand exchange, where a UV-sensitive peptide is cleaved upon UV-irradiation, and exchanged with the peptide of interest as analyzed. Only peptide candidates that can effectively bind and stabilize the peptide-receptive MHC molecules prevent dissociation of the MHC complexes. To determine the yield of the exchange reaction, an ELISA was performed based on the detection of the light chain (β2m) of stabilized MHC complexes. The assay was performed as generally described in Rodenko et al. (Rodenko et al., 2006).
96 well MAXISorp plates (NUNC) were coated over night with 2 ug/ml streptavidin in PBS at room temperature, washed 4× and blocked for 1 h at 37° C. in 2% BSA containing blocking buffer. […] Peptide-MHC monomers of the UV-exchange reaction were diluted 100-fold in blocking buffer. Samples were incubated for 1 h at 37° C., washed four times, incubated with 2 ug/ml HRP conjugated anti-β2m for 1h at 37° C., washed again and detected with TMB solution that is stopped with […]. Absorption was measured at 450 nm.

On to ILSTTMVTV [ILSTTMVTV (SEQ ID NO: 89)], for which the peptide exchange yield in the test with HLA-A*02 was more than 75%.
Molecule HLVGGLHTV [HLVGGLHTV (SEQ ID NO: 96)] returned a peptide exchange yield with HLA-A*02 of more than 75%.
The same measure, in the same setting: the same measure for LLADFQALL [LLADFQALL (SEQ ID NO: 110)]: more than 75%.
For the molecule SRTINVSNLY [SRTINVSNLY (SEQ ID NO: 176)], the peptide exchange yield with HLA-A*01 lay in the range of 50 to 75%.
In turn, RTDSCSSAQAQY [RTDSCSSAQAQY (SEQ ID NO: 172)] had a peptide exchange yield in the test with HLA-A*01 of 50 to 75%.
In the case of GMLDIFWGV [GMLDIFWGV (SEQ ID NO: 104)], the peptide exchange yield with HLA-A*02 is more than 75%.
The same measure, in the same setting: for TLQEKILQV [TLQEKILQV (SEQ ID NO: 93)] the value was more than 75%.
VTDGINPLIDRY [VTDGINPLIDRY (SEQ ID NO: 190)] gave a peptide exchange yield with HLA-A*01 of 50 to 75%.
Take TSAHPEDSSFY [TSAHPEDSSFY (SEQ ID NO: 184)]: the peptide exchange yield with HLA-A*01 lay in the range of 50 to 75%.
FVIDGFDEL [FVIDGFDEL (SEQ ID NO: 86)] had a peptide exchange yield with HLA-A*02 of more than 75%.
On the same count and under the same terms, the same measure for SVASVLLYL [SVASVLLYL (SEQ ID NO: 124)]: more than 75%.
For ASEQQALHTVQY [ASEQQALHTVQY (SEQ ID NO: 398)], the peptide exchange yield in the test with HLA-A*01 lay within 50 to 75%.
Take ITIGVLARV [ITIGVLARV (SEQ ID NO: 95)]: the peptide exchange yield with HLA-A*02 is more than 75%.
Regarding SLLEQAIAL [SLLEQAIAL (SEQ ID NO: 102)], the peptide exchange yield in the test with HLA-A*02 was more than 75%.
VLALVNSTV [VLALVNSTV (SEQ ID NO: 97)] displayed a peptide exchange yield with HLA-A*02 of more than 75%.
Consider HSDLKVGEY [HSDLKVGEY (SEQ ID NO: 151)], for which the peptide exchange yield in the test with HLA-A*01 was in the range of 50 to 75%.
In the case of LLQGAIESV [LLQGAIESV (SEQ ID NO: 107)], the peptide exchange yield with HLA-A*02 was more than 75%.
For the molecule VTDGSLYEGVAY [VTDGSLYEGVAY (SEQ ID NO: 191)], the peptide exchange yield with HLA-A*01 fell in the range of 50 to 75%.
In the test with HLA-A*01, VVDSVGGYLY [VVDSVGGYLY (SEQ ID NO: 195)] yielded a peptide exchange yield of 50 to 75%.
LVDNSIRELQY [LVDNSIRELQY (SEQ ID NO: 162)]: the peptide exchange yield in the test with HLA-A*01 lay in the range of 50 to 75%.
As to LLLGSIGLLGV [LLLGSIGLLGV (SEQ ID NO: 109)], in the test with HLA-A*02, the peptide exchange yield is more than 75%.
On to LLDSLREQY [LLDSLREQY (SEQ ID NO: 156)], for which the peptide exchange yield with HLA-A*01 fell in the range of 50 to 75%.
The same measure, in the same setting: the same measure for DTDSQRLAY [DTDSQRLAY (SEQ ID NO: 402)]: 50 to 75%.
As for TADGKTYYY [TADGKTYYY (SEQ ID NO: 181)], the peptide exchange yield with HLA-A*01 is 50 to 75%.
In the test with HLA-A*01, NSDSSLTLREFY [NSDSSLTLREFY (SEQ ID NO: 163)] returned a peptide exchange yield of 50 to 75%.
The same measure, in the same setting: for NTQITDIGRY [NTQITDIGRY (SEQ ID NO: 166)] the value was 50 to 75%.
Same read-out and setting: the same measure for LTEAVLNRY [LTEAVLNRY (SEQ ID NO: 160)]: 50 to 75%; for VSDAKLDKY [VSDAKLDKY (SEQ ID NO: 188)]: 50 to 75%.
For the molecule ELDSKVEVLTY [ELDSKVEVLTY (SEQ ID NO: 403)], the peptide exchange yield in the test with HLA-A*01 lay within 50 to 75%.
ALLEMFPEITV [ALLEMFPEITV (SEQ ID NO: 122)] displayed a peptide exchange yield with HLA-A*02 of more than 75%.
Consider ALLANLPAV [ALLANLPAV (SEQ ID NO: 120)], for which the peptide exchange yield in the test with HLA-A*02 is more than 75%.
As for VADLHLYLY [VADLHLYLY (SEQ ID NO: 187)], in the test with HLA-A*01, the peptide exchange yield was 50 to 75%.
Take AVLTGLVEV [AVLTGLVEV (SEQ ID NO: 113)]: in the test with HLA-A*02, the peptide exchange yield is more than 75%.
Consider LQSSGLTLLL [LQSSGLTLLL (SEQ ID NO: 98)], for which the peptide exchange yield in the test with HLA-A*02 was more than 75%.
Still for that read-out and setting: the same measure for VLPDIETLIGV [VLPDIETLIGV (SEQ ID NO: 94)]: more than 75%.
Consider ATDISRQNEY [ATDISRQNEY (SEQ ID NO: 400)], for which, in the test with HLA-A*01, the peptide exchange yield was 50 to 75%.
LVDDGTHGQY [LVDDGTHGQY (SEQ ID NO: 161)]: the peptide exchange yield with HLA-A*01 was 50 to 75%.
For ALVDTLTGI [ALVDTLTGI (SEQ ID NO: 121)], the peptide exchange yield in the test with HLA-A*02 is more than 75%.
In the test with HLA-A*02, YIDEFQSLV [YIDEFQSLV (SEQ ID NO: 85)] returned a peptide exchange yield of more than 75%.
SVSDGIHSV [SVSDGIHSV (SEQ ID NO: 112)]: the peptide exchange yield in the test with HLA-A*02 is more than 75%.
KLDRSVFTAY [KLDRSVFTAY (SEQ ID NO: 153)] returned a peptide exchange yield with HLA-A*01 of 50 to 75%.
YADTVRPEFY [YADTVRPEFY (SEQ ID NO: 197)] had a peptide exchange yield in the test with HLA-A*01 of 50 to 75%.
For the molecule VLMEENSKL [VLMEENSKL (SEQ ID NO: 116)], in the test with HLA-A*02, the peptide exchange yield was more than 75%.
Same read-out and setting: for FLDPNARPLV [FLDPNARPLV (SEQ ID NO: 117)] the value was more than 75%; for TLYPYQISQL [TLYPYQISQL (SEQ ID NO: 87)], more than 75%.
In the case of LLDISQKNLY [LLDISQKNLY (SEQ ID NO: 154)], in the test with HLA-A*01, the peptide exchange yield was in the range of 50 to 75%.
As for RQYPTPFQL [RQYPTPFQL (SEQ ID NO: 100)], the peptide exchange yield in the test with HLA-A*02 is more than 75%.
As for MLLETQDALYV [MLLETQDALYV (SEQ ID NO: 115)], the peptide exchange yield with HLA-A*02 was more than 75%.
Still for that read-out and setting: for RTADITVTV [RTADITVTV (SEQ ID NO: 119)] the value was more than 75%.
Molecule NTDPTAPPY [NTDPTAPPY (SEQ ID NO: 165)] displayed a peptide exchange yield in the test with HLA-A*01 of 50 to 75%.
In turn, QSDPGTSVLGY [QSDPGTSVLGY (SEQ ID NO: 167)] had a peptide exchange yield with HLA-A*01 of 50 to 75%.
As to ALSSVLHSI [ALSSVLHSI (SEQ ID NO: 118)], in the test with HLA-A*02, the peptide exchange yield was more than 75%.
Same read-out and setting: for FLKEKVPGI [FLKEKVPGI (SEQ ID NO: 99)] the value was more than 75%.
HTDSLHLLI [HTDSLHLLI (SEQ ID NO: 152)] yielded a peptide exchange yield with HLA-A*01 of 50 to 75%.
As for YVDINTFRL [YVDINTFRL (SEQ ID NO: 84)], the peptide exchange yield with HLA-A*02 is more than 75%.
In the test with HLA-A*02, FLYYPDPVL [FLYYPDPVL (SEQ ID NO: 103)] had a peptide exchange yield of more than 75%.
In turn, ILDERQVLL [ILDERQVLL (SEQ ID NO: 114)] showed a peptide exchange yield with HLA-A*02 of more than 75%.
The molecule TTDIIEKY [TTDIIEKY (SEQ ID NO: 186)] returned a peptide exchange yield with HLA-A*01 of 50 to 75%.
Take TDYHVRVY [TDYHVRVY (SEQ ID NO: 182)]: the peptide exchange yield with HLA-A*01 fell in the range of 50 to 75%.
As for SLLTHIPTA [SLLTHIPTA (SEQ ID NO: 105)], the peptide exchange yield with HLA-A*02 is more than 75%.
In the test with HLA-A*02, VQMVITEAQKV [VQMVITEAQKV (SEQ ID NO: 88)] registered a peptide exchange yield of more than 75%.
As to FIIDTTYPAYV [FIIDTTYPAYV (SEQ ID NO: 106)], the peptide exchange yield in the test with HLA-A*02 is more than 75%.

The values are drawn from patent US11352401.
